Holding throughout (experiment): two-hybrid library CCNG1;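 also: natural log of median RNA to DNA barcode read ratio; higher means stronger binding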
One test has as its target T1, 4H48-bA.
T1 chain: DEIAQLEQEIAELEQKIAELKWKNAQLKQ

The target of another test is T2, 4H2937-bA.
T2 chain: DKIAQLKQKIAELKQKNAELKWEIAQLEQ

The next test concerns the target T3, 4H2944-bA.
T3 chain: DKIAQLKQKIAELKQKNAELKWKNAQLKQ

The next test has as its target T4, 4H491-bA.
T4 chain: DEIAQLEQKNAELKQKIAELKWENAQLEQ

A further test addresses T5, 4H342-bA.
T5 chain: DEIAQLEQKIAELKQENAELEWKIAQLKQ

The target of another test is T6, 4H48-bH.
T6 chain: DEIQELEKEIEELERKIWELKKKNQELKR

A further test addresses T7, 4H2944-bH.
T7 chain: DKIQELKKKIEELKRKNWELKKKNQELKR

In another test the target is T8, 4H342-bH.
T8 chain: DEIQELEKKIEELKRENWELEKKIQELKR

Another test deals with T9, 4H2937-bH.
T9 chain: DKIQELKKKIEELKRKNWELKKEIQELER

A further test deals with T10, 4H491-bH.
T10 chain: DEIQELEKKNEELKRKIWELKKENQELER

Turning to DKIAQLKQKIAELKQKNAELKWEIAQLEQ [4H2937-bA], the interaction score with 4H48-bA is 0.573; with 4H2937-bA it was -0.419; with 4H2944-bA, -0.548; in the test with 4H491-bA, -0.0219; in the test with 4H342-bA, 1.61.
With DKIQELKKKIEELKRKNWELKKEIQELER [4H2937-bH], the interaction score in the test with 4H48-bH was 0.185; in the test with 4H2944-bH, -0.833; in the test with 4H342-bH, 1.21; with 4H2937-bH, 0.307; with 4H491-bH, 0.828.

Source of the values: article PMC10397247.
